Where a chain is given by its changes, count along the chain named.
T1: human IL-33 (His-tagged) (human, UniProt O95760 112-270, limits assumed)
T1 construct: not shown: His tag
T1 sequence (looked up): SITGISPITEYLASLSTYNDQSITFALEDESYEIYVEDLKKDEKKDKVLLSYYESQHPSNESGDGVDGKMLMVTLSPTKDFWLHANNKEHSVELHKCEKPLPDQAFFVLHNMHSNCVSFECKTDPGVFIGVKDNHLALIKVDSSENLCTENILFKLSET

T2: human IL-33 (human, UniProt O95760 112-270, limits assumed)
T2 sequence (looked up): T1 sequence (looked up)

B1: 1E1v10 (antibody, human IgG1, V domains shown)
VH: EVQLVESGGGLVQPGGSLRLSCAASGFTFNNYWMTWVRQAPGKGLEWVASITYTGGGTYYPDSVKGRFTISRDDAKSSLYLQMNSLRAEDTAVYYCTRANYYYNTYGGFPYWGQGTLVTVSS
VL: DIQMTQSPSSLSASVGDRVTITCLASEGFSNDLAWYQQKPGKAPKSLIYAASRLQDGVPSRFSGSGSGTDFTLTISSLQPEDFATYFCQQGSKYPLTFGGGTKVEIK
notes: Humanized 1E1 variant, human IgG1 backbone, expressed in Expi293F
B2: 1E1v1 (antibody, human IgG1, V domains shown)
VH: B1 VH with D74N, S77N
VL: B1 VL with Y36F, F87Y
notes: as for B1
B3: 1E1v2 (antibody, human IgG1, V domains shown)
VH: B1 VH with V37I, V48I
VL: B1 VL with Y36F, F87Y
notes: as for B1
B4: 1E1v3 (antibody, human IgG1, V domains shown)
VH: B1 VH with D74N, S77N
VL: B1 VL with A43S, S46L
notes: as for B1
B5: 1E1v4 (antibody, human IgG1, V domains shown)
VH: B1 VH with V37I, V48I
VL: B1 VL with A43S, S46L
notes: as for B1
B6: 1E1v5 (antibody, human IgG1, V domains shown)
VH: B1 VH
VL: B1 VL with A43S, S46L
notes: as for B1
B7: 1E1v6 (antibody, human IgG1, V domains shown)
VH: B1 VH with S77N
VL: B1 VL with A43S, S46L
notes: as for B1
B8: 1E1v7 (antibody, human IgG1, V domains shown)
VH: B1 VH with D74N
VL: B1 VL with A43S, S46L
notes: as for B1
B9: 1E1v8 (human IgG1) (antibody, V domains shown)
VH: B1 VH with V37I
VL: B1 VL with A43S, S46L
B10: 1E1v9 (antibody, human IgG1, V domains shown)
VH: B1 VH with V37I, V48I
VL: B1 VL
notes: as for B1
B11: 1E1v11 (antibody, human IgG1, V domains shown)
VH: B1 VH with S77N
VL: B1 VL
notes: as for B1
B12: 1E1v12 (antibody, human IgG1, V domains shown)
VH: B1 VH with D74N
VL: B1 VL
notes: as for B1
B13: 1E1v13 (antibody, human IgG1, V domains shown)
VH: B1 VH with V48I
VL: B1 VL
notes: as for B1
B14: 1E1v14 (antibody, human IgG1, V domains shown)
VH: B1 VH with V37I, V48I
VL: B1 VL with Y36F
notes: as for B1
B15: 1E1v15 (antibody, human IgG1, V domains shown)
VH: B1 VH
VL: B1 VL with Y36F
notes: as for B1
B16: 1E1v16 (antibody, human IgG1, V domains shown)
VH: B1 VH with S77N
VL: B1 VL with Y36F
notes: as for B1
B17: 1E1v17 (antibody, human IgG1, V domains shown)
VH: B1 VH with D74N
VL: B1 VL with Y36F
notes: as for B1
B18: 1E1v18 (antibody, human IgG1, V domains shown)
VH: B1 VH with V48I
VL: B1 VL with Y36F
notes: as for B1
B19: 1E1v19 (antibody, human IgG1, V domains shown)
VH: B1 VH with V37I, V48I
VL: B1 VL with F87Y
notes: as for B1
B20: 1E1v20 (antibody, human IgG1, V domains shown)
VH: B1 VH
VL: B1 VL with F87Y
notes: as for B1
B21: 1E1v21 (antibody, human IgG1, V domains shown)
VH: B1 VH with S77N
VL: B1 VL with F87Y
notes: as for B1
B22: 1E1v22 (antibody, human IgG1, V domains shown)
VH: B1 VH with D74N
VL: B1 VL with F87Y
notes: as for B1
B23: 1E1v23 (antibody, human IgG1, V domains shown)
VH: B1 VH with V48I
VL: B1 VL with F87Y
notes: as for B1
B24: ch1E1 (antibody, V domains shown)
VH: B1 VH with G16T, R19K, A23L, V37I, V48I, S78T, A88S, V93T
VL: DIQMTQSPASLSASLGETVSIECLASEGFSNDLAWYQQKSGKSPQLLIYAASRLQDGVPSRFSGSGSGTRFSLKISGMQPEDEADYFCQQGSKYPLTFGSGTKLEIKR

The binders below were run against T1, human IL-33 (His-tagged) (assay: SPR Biacore T200, IgG captured on protein A chip, His-tagged human IL-33 analyte, 25 C, n=2; column head prints 'KD (nM)' but the E-notation cells are in M, unit corrected to M).
Method: A protein A sensorchip (GE Healthcare) was used following manufacturer provided protocols to capture humanized anti-IL-33 antibodies using a BIACORE® T200 instrument (GE). Antibody binding was measured to human IL-33 (His-tagged) using multi-cycle kinetics. Sensorgrams for binding of IL-33 were recorded using an injection time of 2 min with a flow rate of 30 μl/min, at a temperature of 25° C., and with a running buffer of 10 mM HEPES, pH 7.4, 150 mM NaCl, 3 mM EDTA, and 0.005% TWEEN620. After injection, disassociation of IL-33 from the antibody was monitored for 10 min in running buffer. The surface was regenerated between binding cycles with a 30 μl injection of 10 mM Glycine HCl pH 1.5. After subtraction of a blank which contained running buffer only, sensorgrams observed for cytokine binding to anti-IL-33 antibody were analyzed using a 1:1 Langmuir binding model with software supplied by the manufacturer to calculate the kinetics and binding constants.

Question: B1 was tested. Which Kd did it give?
Answer: 0.121 nM

Question: Which Kd does the source give for B2 here?
Answer: 0.295 nM

Question: For B3, which Kd is on record?
Answer: 0.203 nM

Question: With B4 as the binder, how does the Kd read?
Answer: 0.149 nM

Question: How did the Kd turn out when B5 was run?
Answer: 0.154 nM

Question: For B6, which Kd is on record?
Answer: 0.144 nM

Question: For B7, which Kd is on record?
Answer: 0.132 nM

Question: Which Kd does the source give for B8 here?
Answer: 0.144 nM

Question: B9 was tested. Which Kd did it give?
Answer: 0.118 nM

Question: For B10, which Kd is on record?
Answer: 0.129 nM

Question: With B11 as the binder, how does the Kd read?
Answer: 0.123 nM

Question: Which Kd does the source give for B12 here?
Answer: 0.163 nM

Question: Which Kd does the source give for B13 here?
Answer: 0.14 nM

Question: With B14 as the binder, how does the Kd read?
Answer: 0.163 nM

Question: For B15, which Kd is on record?
Answer: 0.195 nM

Question: For B16, which Kd is on record?
Answer: 0.179 nM

Question: B17 was tested. Which Kd did it give?
Answer: 0.285 nM

Question: Which Kd does the source give for B18 here?
Answer: 0.172 nM

Question: For B19, which Kd is on record?
Answer: 0.132 nM

Question: B20 was tested. Which Kd did it give?
Answer: 0.128 nM

Question: With B21 as the binder, how does the Kd read?
Answer: 0.155 nM

Question: B22 was tested. Which Kd did it give?
Answer: 0.146 nM

Question: B23 was tested. Which Kd did it give?
Answer: 0.151 nM

Question: With B24 as the binder, how does the Kd read?
Answer: 0.148 nM

The binders below were run against T2, human IL-33 (assay: cell-based or functional assay).

Question: B5 was tested. Which “IC50 (M), IL-33 neutralization activity, HEK-BLUE IL-33 cells, human IL-33 at 160 pM” value (“IC50 (M), IL-33 neutralization activity” for short) did it give?
Answer: 3.11e-11 M

Question: B9 was tested. Which “IC50 (M), IL-33 neutralization activity” value did it give?
Answer: 3.11e-11 M

Question: For B10, which “IC50 (M), IL-33 neutralization activity” value is on record?
Answer: 3.05e-11 M

Question: With B12 as the binder, how does the “IC50 (M), IL-33 neutralization activity” value read?
Answer: 2.44e-11 M

Question: For B13, which “IC50 (M), IL-33 neutralization activity” value is on record?
Answer: 2.98e-11 M

Question: How did the “IC50 (M), IL-33 neutralization activity” value turn out when B19 was run?
Answer: 3.19e-11 M

Question: B20 was tested. Which “IC50 (M), IL-33 neutralization activity” value did it give?
Answer: 3.44e-11 M

Question: Which “IC50 (M), IL-33 neutralization activity” value does the source give for B21 here?
Answer: 3.1e-11 M

Question: Which “IC50 (M), IL-33 neutralization activity” value does the source give for B24 here?
Answer: 2.9e-11 M
